# According to the DeepSol protein solubility set:
# Assay: soluble on expression in E. coli; label from the status in PepcDB or PDB records
row,Sequence,soluble on expression in E. coli
1,MSLATLQDLDLTGNTNLVLEHKTLDIFSHITTLKIDQKPLPTTDSTVTSTFWSHGLAEMAGQRNKLCVSALAMDSFAEGVGAVYGMFDGDRNEELPRLLQCTMADVLLEEVQQSTNDTVFMANTFLVSHRKLGMAGQKLGSSALLCYIRPDTADPASSFSLTVANVGTCQAVLCRGGKPVPLSKVFSLEQDPEEAQRVKDQKAIITEDNKVNGVTCCTRMLGCTYLYPWILPKPHISSTPLTIQDELLILGNKALWEHLSYTEAVNAVRHVQDPLAAAKKLCTLAQSYGCQDNVGAMVVYLNIGEEGCTCEMNGLTLPGPVGFASTTTIKEGHHHHHH,soluble
2,MENRRIVIITGANSGIGKEAAQRFANEGDHVIMACRNIAFSRKVQHDIIAASGNDHVDLLELDVSSFASIRTFCTTFNSQYKRLDILIHNAAYFNHGEPYRLSPDGIELTFATNVFGPYLLTSLLRDRLKQSEDPRILHAGSNIIKHFFDPKQTFDLDLLQGNHGTKSYSVYKMYCQSKMALMLLTFQMAEVFADDGIKVNALQINGAKMSKRTIQKVKPWWRPIAWGQNLFFPPPSYMADKYFTICTSDKYKQTTGKLFNDKLEIMEPSPTHYPGFFKQMKLLLGSNVYPAYENTNIREKLWALCKELVGELEHHHHHH,not soluble
3,MAHHHHHHMDMNFGFCNDAFFEQGNRSTDKEDIEELKKGESNEITKKGNNELGEEKELPKELCVPVTIKLLLSKMMSHEEFKIHDFQISGIIVFGKVCRIKELASAIIFEICDYTGNIEAKYNKDAKNEKVKDHIEGIKVNDHIKVVGVVYSPESKTEQIQISISYINKVEDWVSYFSYFTSDVIYCYLKLLKLKNIYTPNGVNNEDKPWSHVTLDTYYNQLDDIDTDIIKYLHTTSEKYANQQDIFEHLKKYHSEMNIKKSLTKLIEQYDLAQYEDIISIP,not soluble
4,MGSDKIHHHHHHMDWLSKHYQQQKGYDELVGEGAVPRLPAAPLFDYLSTLDSSELRARRQAADAAILAMGITFTVYSEAGDIDRAWPFDIIPRILSRREWMRIEEGLKQRLQALNLFIDDIYNAQRIVVDGVFPAEVLASSRNFREACRGVHPPFGVWAHICGSDLVRDADGTVYVLEDNLRVPSGVSYMLENRQIMKRLFPELFKSSTILPVDDYPNRLYDTLAALSPREGERPVVAVLTPGIYNSAYFEHSYLAQQMGAYLAEGADFFVSRDDIVYLRTISGPQRVDVIYRRIDDEYMDPEVFFTDSALGIPGLLRAWRRGTVAIANAPGAGVADDKVVYAFVPDIIRYYLGAEPILPNVPTYLCMREADRDYVLSHLHELVVKPANESGGYGMLIGPRATSEERGRFAELIAANPRNYIAQPTLNLSTAPTLVEDHLEARHLDLRPFILQADKLYVTTGGLTRVAMQPGSLVVNSSQGGGSKDTWIVDEEAPCFRA,not soluble
5,MGSDKIHHHHHHMNDKEFGQRVRQLRESASMTREQFCDDELELSVRQLTRIEAGASKPTFSKIQYIATRLGMGLYELMPDYVSLPERYSKLKFDVLRTPTYGNEDLAEKRDAMMTEIYDDYYDELPEEEKIVVDTLCSLFDVLDTDSQEYGKEILDDYLHQSYHRSKLSINDLMILRLFIEHCQLEDLSVGTSNYALFTDLIEKLPQSIYDVHSESLFIVRDLFLAIVRILFSKELYNHIPVYIEKIENIMELSQDFQKKPILNLVKWKYELKVQHNHEIAERYYNEAITFASLLNQFHLKEKLQMEWEKDTQSLKR,not soluble
6,MTEAGASIVVTVKNEGKNLRELLESIEKNDFTNFETVVVDDLSTDDTEDIVKSYRFTVYKRIACSRGEGRNIGVDLSRYGYILFTDGDAKVSEHWISGMVSALAAGNDAVIGNTLYTGKRRYMQERVKIFLEGIEVTAPSVNLAYRKDRFRQLGGFDPKFVTAEDIDLNIRAVKAGFRFATCDSCVVYAKVRENLASFLRQAYWNGYGRYQLEMKHPGITRNTRVRLGHNFFDFLHMVSGAAGYLSARISEGKQGRLEHHHHHH,soluble
7,MKRYPRDMRGHGPTPPDAAWPGGARIAVSIVLNYEEGGENCLLHGDAQSEAFLSDIAGAQPWPGQRHWNMESIYDYGARAGFWRLHRLFTGLNIPVTVYGVATALARSPEQVAAMKSAGWEIASHGLKWVEHRDMPEEEERRQIAEAIRLHAEVVGERPRGWYTGRCSVNTVRLTAEEGGFDWISDTYDDDQPYWLETGTRDQLVIPYTLEANDMRFATAPGYIEGEQFFTYLRDSFDTLYAEGCAGQAKMFSIGLHCRLIGRPGKIAGLKRFLDYARTHERVWFPCRGDIARHWHETHPHRRRPRPSRMDRESFVAHFGGIYEHSPWIAERAFELELGPAHDSPAGLANALARIFRSATPAERLSVLKAHPDLAGKLAQARRLTASSSFEQSSAGLDALTDAERAEFATLNADYVAKHGFPFIIAVRDHDKAGILAAFETRLAHDSATEFATACRQVERIAELRLQDMLKLEHHHHHH,not soluble
8,MGSDKIHHHHHHMAEVFHERLKSPIPTRELARRSRELQAVMKKENIDCILAQNITQYMGGCNRWLTDTTAENHYPQSSFLTKDGDIGYIACSGPPLDLYPPSHLLRIGKPWAAAPYFSVFNFTWDWEGRLFVKWVQENNVQKVGIAGMEMIMWNYYNYIAEKLPGVEIVDASSLFDEIRAVKSEDEIKFLEKSAALQDKVMGYLPALIQPGVREYEVRAKIMQLVTDHGGEEMIVIMGSAPRGEKFSLLPSFFQNRELQTGDELYVKLQCSGPGGLFTTVGRMFSIGCEPSGALEQGWREAAAAQEKLAGLLQVGADPQVIFGQYNAYLESKGYNQETGLFVYGQGYDHIERPSIQPGETMKLAKDMCLAANTSLISAERTVYCADSFILKPSGPQKLHRTPLTIFRT,not soluble
9,MGSDKIHHHHHHMFIVSKQTTTEYGTGCFAAPSSSCQSEYNPKVENDAVAHNSISGLRGSLRRNSSNLSSQLTALQETCLADAAQIEINCSTSNAKQAFFVKIEVPTGEQGVLHFSPSSGDISQVFTPIQNGCGHGVWKFVVCTMENGSEIAHSQVSRNLDGVGILFFNVYEDLEIRLAQQEFLHISHCHTRRH,not soluble
10,SMDTNADIYDQTASTFFPNGEAMWKKMVEDLKKAEKFIFLEYYIIEEGLMWNRILDILEQKVAQGVEVKMLYDDIGCMATLTGDYAHRLRQLGIEAHKFNKVIPRLTVAYNNRDHRKILIVDGQIAYTGGVNLADEYINHVERFGYWKDSGIRLDGLAVKALTRLFLTTWYINRGEISDFDQYH,not soluble
11,MSSTQEASVTDLPVKRPREAEEDNNGGAMETENGGGEIKEPSCMSSIIPGWFSEISPMWPGEAHSLKVEKILFQGKSDYQDVIVFQSATYGKVLVLDGVIQLTERDECAYQEMITHLPLCSISNPKKVLVIGGGDGGVLREVARHSSVEQIDICEIDKMVVDVAKQYFPNVAVGYEDPRVNLIIGDGVAFLKNAAEGTYDAVIVDSSDPIGPAKELFEKPFFESVNRALRPGGVVCTQAESLWLHMDIIEDIVSNCRDIFKGSVNYAWTSVPTYPSGVIGFMLCSSEGPQVDFKKPVSLIDTDESSIKSHCPLKYYNAEIHSAAFCLPSFAKKVIDSKAN,soluble
12,MRPDLSRVPGVLGEIARKRASEVAPYPLPEPPSVPSFKEALLRPGLSVIAEVKRQSPSEGLIREVDPVEAALAYARGGARAVSVLTEPHRFGGSLLDLKRVREAVDLPLLRKDFVVDPFMLEEARAFGASAALLIVALLGELTGAYLEEARRLGLEALVEVHTERELEIALEAGAEVLGINNRDLATLHINLETAPRLGRLARKRGFGGVLVAESGYSRKEELKALEGLFDAVLIGTSLMRAPDLEAALRELVG,soluble
13,MLDLVNQLELDSQMKQFKLVSQMTRQDVIILDEPGYLPFSQKRGALLFHLMSQLHENTSVIITTNLEFSEWGTLFTEAKMTNALLDRLIHHCHMLETGNESYRFKHRNLEHHHHHH,not soluble
14,DIGCYTLGIQSGTVETTLCMGSSISIASGLYHAGEKRPICCSIGDSTFFHTGMNSLLNAVFNKANITVTILDNRITAMTGHQPNPGVGFTVTGEPTVEVSLAELCKAMGAGFVTVVDPYNLEETQEAFKAAKEFEGTAVVIAKQPCVISGKRAGI,not soluble
15,MFDVLMYLFETYIHNEAELRVDQDRLERDLTDAGFDREDIYNALLWLEKLADYQDGLAEPMQLASDPLSMRIYTVEECERLDASCRGFLLFLEQIQVLNLETREMVIERVLALDTAEFDLEDLKWVILMVLFNIPGCENAYQQMEELLFEVNEGMLH,not soluble
16,MGRTSKDKRDVYYRLAKENGWRARSAFKLLQLDKEFQLFQGVTRAVDLCAAPGSWSQVLSQKIGGQGSGHVVAVDLQAMAPLPGVVQIQGDITQLSTAKEIIQHFKGCPADLVVCDGAPDVTGLHDVDEYMQAQLLLAALNIATHVLKPGGCFVAKIFRGRDVTLLYSQLQVFFSSVLCAKPRSSRNSSIEAFAVCQGYDPPEGFIPDLSKPLLDHSYDPDFNQLDGPTRIIVPFVTCGDLSSYDSDRSYPLDLEGGSEYKYTPPTQPPISPPYQEACTLKRKGQLAKEIRPQDCPISRVDTFPQPLAAPQCHTLLAPEMEDNEMSCSP,soluble
17,MGSDKIHHHHHHMNGLDVLLSNNQNHHFYGVTIGVVTNNKDPKKLGRVKVKFPWLSSEEESYWARVVTLMAGNDRGIYFLPEVDDEVLVAFEQGDMNFPYILGALWNGKDKPPITNEDGKNNQRVIKSRSGHMIVLDDTEENEQIIIQDKTGKNKIVINSKENKMNIQVEKDLTIETKGKIILKSSDDDISIDCKNLQIKTQQNYQLEVGANCTIKAKSKYKLEAQSGLGIKCAAGVKINDGSLEVM,not soluble
18,VPEKFKLSTALMDVLGIEVETRPRIIAAIWHYVKARKLQNPNDPSFFNCDAALQKVFGEEKLKFTMVSQKISHHLSPPPP,soluble
19,MAHHHHHHSLCKAFCSCYSYHYHHREKMGIKEYYDKLAKSYDKLYKNKYMRIVEREIIQKEIKDGDFVLDIGCGTGEQLKILNNAVGLDISLEMAKIAKNKTNKPVVVANAEFLPFKNKSFDKAISFFGALNHCNLKRALREVNRVLKDDGIFIFTVANIYDIKWIIKNILKGNFKKVKNAMKKRKGTITKVIDGEKIKVKTRFYDFKEVEDALKKEGFEVVYTFGTNITNSPLDKFIYKSFLKNFASYIGFVAKKVKNREG,not soluble
20,MGSDKIHHHHHHMLLYIHGFNSSPFSDKAIMTAQYMAQHHPSVLFHQPQLPNTPKAAMALLLEYVEAALKDDEPLTYIGSSLGGYFASYLAEHYGGRAVLVNPAVKPFELFDEFMGPQFNPYTGENYQVLPEHKMEVAEFNTPVIRNPDRFLVLLQSGDEVLDYREALSKYHHCQLRIEAAGDHSFVGYEHYLQTISQFLHLP,not soluble
21,MSDEIARLVADVFELAGLLRRSGEVVAAREGHTQARWQLLSVVSDRALTVPQAARRLGVTRQGVQRVANDLVVCGLAELRHNPDHRTSPLLVLTENGRRVLQAITERAIVVNNRLADAVDPAALQATRDSLRRMIVALKAERP,not soluble
